{
  "source": "patent US20260232769A1",
  "about": "(WUXI BIOLOGICS IRELAND, published 2026)",
  "data": [
    {"biological_target": "T1, IL-2Rβ/γc complex (intermediate affinity receptor) on primary human CD8+ T cells (human, UniProt P14784 27-551; P31785 23-369)", "T1 sequence (looked up) 1": "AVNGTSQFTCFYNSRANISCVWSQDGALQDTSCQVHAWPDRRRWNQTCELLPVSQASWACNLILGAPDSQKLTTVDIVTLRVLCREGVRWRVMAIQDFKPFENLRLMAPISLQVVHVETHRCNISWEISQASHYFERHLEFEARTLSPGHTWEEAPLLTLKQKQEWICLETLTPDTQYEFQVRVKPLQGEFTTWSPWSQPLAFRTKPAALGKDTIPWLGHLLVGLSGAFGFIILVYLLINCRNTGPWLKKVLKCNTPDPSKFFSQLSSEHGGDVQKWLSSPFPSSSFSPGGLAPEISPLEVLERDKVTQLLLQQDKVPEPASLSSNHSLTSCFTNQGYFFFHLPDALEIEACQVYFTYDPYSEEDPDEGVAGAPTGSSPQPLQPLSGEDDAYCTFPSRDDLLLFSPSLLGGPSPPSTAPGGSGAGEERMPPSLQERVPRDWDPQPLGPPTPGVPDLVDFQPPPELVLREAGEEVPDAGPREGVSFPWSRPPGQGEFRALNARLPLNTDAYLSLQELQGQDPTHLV", "T1 sequence (looked up) 2": "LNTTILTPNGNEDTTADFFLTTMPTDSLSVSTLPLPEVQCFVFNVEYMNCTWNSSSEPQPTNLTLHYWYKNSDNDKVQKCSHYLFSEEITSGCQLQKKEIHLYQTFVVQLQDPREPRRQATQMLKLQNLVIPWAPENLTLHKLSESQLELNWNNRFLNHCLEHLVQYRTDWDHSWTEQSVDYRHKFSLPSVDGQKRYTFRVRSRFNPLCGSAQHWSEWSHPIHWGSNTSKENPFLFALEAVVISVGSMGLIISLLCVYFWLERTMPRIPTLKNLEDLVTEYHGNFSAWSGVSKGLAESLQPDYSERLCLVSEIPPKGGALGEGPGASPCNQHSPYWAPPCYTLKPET", "assay": "cell-based or functional assay", "units": {"Potency reduction, pSTAT5, human primary CD8+ T": "fold", "pSTAT5 EC50, human primary CD8+ T": "nM"}, "values": [
      {"binder": "W3XX115-T2U0.E44-44.uIgG4V322 (Fc fusion) APTSSSTKKTQLQLEHLLLDLQMILNGINNYKNPKLTRMLTFKFYMPKKATGLKHLQCLEEELKPLEEVLNLAQSKNFHLRPRDLISNINVIVLELKGSETTFMCEYADETATIVEFLNRWITFCQSIIESKYGPPCPPCPAPEAAGGPSVFLFPPKPKDTLMISRTPEVTCVVVDVSQEDPEVQFNWYVDGVEVHNAKTKPREEQFNSTYRVVSVLTVLHQDWLNGKEYKCKVSNKGLPSSIEKTISKAKGQPREPQVYTLPPCQEEMTKNQVSLWCLVKGFYPSDIAVEWESNGQPENNYKTTPPVLDSDGSFFLYSRLTVDKSRWQEGNVFSCSVMHEALHNHYTQKSLSLSLG heavy: EIQLQQSGPELVKPGASVKVSCKASGYSFTDYNMYWVKQSHGESLEWIGYIDPYNGGTRYNQKFKGKATLTVDKSSSTAFMHLNSLTSEDSAVYYCARNGHWDGAWFAYWGQGTLVTVSAASTKGPSVFPLAPCSRSTSESTAALGCLVKDYFPEPVTVSWNSGALTSGVHTFPAVLQSSGLYSLSSVVTVPSSSLGTKTYTCNVDHKPSNTKVDKRVESKYGPPCPPCPAPEAAGGPSVFLFPPKPKDTLMISRTPEVTCVVVDVSQEDPEVQFNWYVDGVEVHNAKTKPREEQFNSTYRVVSVLTVLHQDWLNGKEYKCKVSNKGLPSSIEKTISKAKGQPREPQVCTLPPSQEEMTKNQVSLSCAVKGFYPSDIAVEWESNGQPENNYKTTPPVLDSDGSFFLVSRLTVDKSRWQEGNVFSCSVMHEALHNHYTQKSLSLSLG light: DIQMNQSPSSLSASLGDTITITCHASQNINVWLSWYQQKPGNIPKLLIYKASNLHTGVPSRFSGSRSGTGFTLTISSLQPEDIATYYCHQGQSYPFTFGSGTKLEIKRTVAAPSVFIFPPSDEQLKSGTASVVCLLNNFYPREAKVQWKVDNALQSGNSQESVTEQDSKDSTYSLSSTLTLSKADYEKHKVYACEVTHQGLSSPVTKSFNRGEC", "Potency reduction, pSTAT5, human primary CD8+ T": 11.3, "pSTAT5 EC50, human primary CD8+ T": 86.2},
      {"binder": "W3XX115-T2U0.E44-46.uIgG4V322 (Fc fusion) APTSSSTKKTQLQLEHLLLDLQMILNGINNYKNPKLTRMLTFKFYMPKKATELKHLQCLEEELKPLEEVLNLAQSKNGHLRPRDLISNINVIVLELKGSETTFMCEYADETATIVEFLNRWITFCQSIIESKYGPPCPPCPAPEAAGGPSVFLFPPKPKDTLMISRTPEVTCVVVDVSQEDPEVQFNWYVDGVEVHNAKTKPREEQFNSTYRVVSVLTVLHQDWLNGKEYKCKVSNKGLPSSIEKTISKAKGQPREPQVYTLPPCQEEMTKNQVSLWCLVKGFYPSDIAVEWESNGQPENNYKTTPPVLDSDGSFFLYSRLTVDKSRWQEGNVFSCSVMHEALHNHYTQKSLSLSLG heavy: EIQLQQSGPELVKPGASVKVSCKASGYSFTDYNMYWVKQSHGESLEWIGYIDPYNGGTRYNQKFKGKATLTVDKSSSTAFMHLNSLTSEDSAVYYCARNGHWDGAWFAYWGQGTLVTVSAASTKGPSVFPLAPCSRSTSESTAALGCLVKDYFPEPVTVSWNSGALTSGVHTFPAVLQSSGLYSLSSVVTVPSSSLGTKTYTCNVDHKPSNTKVDKRVESKYGPPCPPCPAPEAAGGPSVFLFPPKPKDTLMISRTPEVTCVVVDVSQEDPEVQFNWYVDGVEVHNAKTKPREEQFNSTYRVVSVLTVLHQDWLNGKEYKCKVSNKGLPSSIEKTISKAKGQPREPQVCTLPPSQEEMTKNQVSLSCAVKGFYPSDIAVEWESNGQPENNYKTTPPVLDSDGSFFLVSRLTVDKSRWQEGNVFSCSVMHEALHNHYTQKSLSLSLG light: DIQMNQSPSSLSASLGDTITITCHASQNINVWLSWYQQKPGNIPKLLIYKASNLHTGVPSRFSGSRSGTGFTLTISSLQPEDIATYYCHQGQSYPFTFGSGTKLEIKRTVAAPSVFIFPPSDEQLKSGTASVVCLLNNFYPREAKVQWKVDNALQSGNSQESVTEQDSKDSTYSLSSTLTLSKADYEKHKVYACEVTHQGLSSPVTKSFNRGEC", "Potency reduction, pSTAT5, human primary CD8+ T": 7.6, "pSTAT5 EC50, human primary CD8+ T": 58.4},
      {"binder": "W3XX115-T2U0.E44-47.uIgG4V322 (Fc fusion) APTSSSTKKTQLQLEHLLLDLQMILNGINNYKNPKLTRMLTFKFYMPKKATELKHLQCLEEELKPLEEVLNLAQSKNFHLRYRDLISNINVIVLELKGSETTFMCEYADETATIVEFLNRWITFCQSIIESKYGPPCPPCPAPEAAGGPSVFLFPPKPKDTLMISRTPEVTCVVVDVSQEDPEVQFNWYVDGVEVHNAKTKPREEQFNSTYRVVSVLTVLHQDWLNGKEYKCKVSNKGLPSSIEKTISKAKGQPREPQVYTLPPCQEEMTKNQVSLWCLVKGFYPSDIAVEWESNGQPENNYKTTPPVLDSDGSFFLYSRLTVDKSRWQEGNVFSCSVMHEALHNHYTQKSLSLSLG heavy: EIQLQQSGPELVKPGASVKVSCKASGYSFTDYNMYWVKQSHGESLEWIGYIDPYNGGTRYNQKFKGKATLTVDKSSSTAFMHLNSLTSEDSAVYYCARNGHWDGAWFAYWGQGTLVTVSAASTKGPSVFPLAPCSRSTSESTAALGCLVKDYFPEPVTVSWNSGALTSGVHTFPAVLQSSGLYSLSSVVTVPSSSLGTKTYTCNVDHKPSNTKVDKRVESKYGPPCPPCPAPEAAGGPSVFLFPPKPKDTLMISRTPEVTCVVVDVSQEDPEVQFNWYVDGVEVHNAKTKPREEQFNSTYRVVSVLTVLHQDWLNGKEYKCKVSNKGLPSSIEKTISKAKGQPREPQVCTLPPSQEEMTKNQVSLSCAVKGFYPSDIAVEWESNGQPENNYKTTPPVLDSDGSFFLVSRLTVDKSRWQEGNVFSCSVMHEALHNHYTQKSLSLSLG light: DIQMNQSPSSLSASLGDTITITCHASQNINVWLSWYQQKPGNIPKLLIYKASNLHTGVPSRFSGSRSGTGFTLTISSLQPEDIATYYCHQGQSYPFTFGSGTKLEIKRTVAAPSVFIFPPSDEQLKSGTASVVCLLNNFYPREAKVQWKVDNALQSGNSQESVTEQDSKDSTYSLSSTLTLSKADYEKHKVYACEVTHQGLSSPVTKSFNRGEC", "Potency reduction, pSTAT5, human primary CD8+ T": 27.6, "pSTAT5 EC50, human primary CD8+ T": 211},
      {"binder": "W3XX115-T2U0.E44-6.uIgG4V322 (Fc fusion) APTSSSTKKTQLQLEHLLLDLQMILNGINNYKNPKLTRMLTFKFYMPKKATELKHLQCLEEELKPLEEVLNLAQSKNFHLRPRDLISNINVIVLELKGSETTFMCEYADETATIVEFLNRWITFCQSIIESKYGPPCPPCPAPEAAGGPSVFLFPPKPKDTLMISRTPEVTCVVVDVSQEDPEVQFNWYVDGVEVHNAKTKPREEQFNSTYRVVSVLTVLHQDWLNGKEYKCKVSNKGLPSSIEKTISKAKGQPREPQVYTLPPCQEEMTKNQVSLWCLVKGFYPSDIAVEWESNGQPENNYKTTPPVLDSDGSFFLYSRLTVDKSRWQEGNVFSCSVMHEALHNHYTQKSLSLSLG heavy: EIQLQQSGPELVKPGASVKVSCKASGYSFTDYNMYWVKQSHGESLEWIGYIDPYNGGTRYNQKFKGKATLTVDKSSSTAFMHLNSLTSEDSAVYYCARNGHWDGAWFAYWGQGTLVTVSAASTKGPSVFPLAPCSRSTSESTAALGCLVKDYFPEPVTVSWNSGALTSGVHTFPAVLQSSGLYSLSSVVTVPSSSLGTKTYTCNVDHKPSNTKVDKRVESKYGPPCPPCPAPEAAGGPSVFLFPPKPKDTLMISRTPEVTCVVVDVSQEDPEVQFNWYVDGVEVHNAKTKPREEQFNSTYRVVSVLTVLHQDWLNGKEYKCKVSNKGLPSSIEKTISKAKGQPREPQVCTLPPSQEEMTKNQVSLSCAVKGFYPSDIAVEWESNGQPENNYKTTPPVLDSDGSFFLVSRLTVDKSRWQEGNVFSCSVMHEALHNHYTQKSLSLSLG light: DIQMNQSPSSLSASLGDTITITCHASQNINVWLSWYQQKPGNIPKLLIYKASNLHTGVPSRFSGSRSGTGFTLTISSLQPEDIATYYCHQGQSYPFTFGSGTKLEIKRTVAAPSVFIFPPSDEQLKSGTASVVCLLNNFYPREAKVQWKVDNALQSGNSQESVTEQDSKDSTYSLSSTLTLSKADYEKHKVYACEVTHQGLSSPVTKSFNRGEC", "Potency reduction, pSTAT5, human primary CD8+ T": 18.3, "pSTAT5 EC50, human primary CD8+ T": 145},
      {"binder": "W3XX115-T2U0.E44-45.uIgG4V322 (Fc fusion) APTSSSTKKTQLQLEHLLLDLQMILNGINNYKNPKLTRMLTFKFYMPKKATELKHLQCLEEELKPLEEVLNLAQSRNFHLRPRDLISNINVIVLELKGSETTFMCEYADETATIVEFLNRWITFCQSIIESKYGPPCPPCPAPEAAGGPSVFLFPPKPKDTLMISRTPEVTCVVVDVSQEDPEVQFNWYVDGVEVHNAKTKPREEQFNSTYRVVSVLTVLHQDWLNGKEYKCKVSNKGLPSSIEKTISKAKGQPREPQVYTLPPCQEEMTKNQVSLWCLVKGFYPSDIAVEWESNGQPENNYKTTPPVLDSDGSFFLYSRLTVDKSRWQEGNVFSCSVMHEALHNHYTQKSLSLSLG heavy: EIQLQQSGPELVKPGASVKVSCKASGYSFTDYNMYWVKQSHGESLEWIGYIDPYNGGTRYNQKFKGKATLTVDKSSSTAFMHLNSLTSEDSAVYYCARNGHWDGAWFAYWGQGTLVTVSAASTKGPSVFPLAPCSRSTSESTAALGCLVKDYFPEPVTVSWNSGALTSGVHTFPAVLQSSGLYSLSSVVTVPSSSLGTKTYTCNVDHKPSNTKVDKRVESKYGPPCPPCPAPEAAGGPSVFLFPPKPKDTLMISRTPEVTCVVVDVSQEDPEVQFNWYVDGVEVHNAKTKPREEQFNSTYRVVSVLTVLHQDWLNGKEYKCKVSNKGLPSSIEKTISKAKGQPREPQVCTLPPSQEEMTKNQVSLSCAVKGFYPSDIAVEWESNGQPENNYKTTPPVLDSDGSFFLVSRLTVDKSRWQEGNVFSCSVMHEALHNHYTQKSLSLSLG light: DIQMNQSPSSLSASLGDTITITCHASQNINVWLSWYQQKPGNIPKLLIYKASNLHTGVPSRFSGSRSGTGFTLTISSLQPEDIATYYCHQGQSYPFTFGSGTKLEIKRTVAAPSVFIFPPSDEQLKSGTASVVCLLNNFYPREAKVQWKVDNALQSGNSQESVTEQDSKDSTYSLSSTLTLSKADYEKHKVYACEVTHQGLSSPVTKSFNRGEC", "Potency reduction, pSTAT5, human primary CD8+ T": 31.4, "pSTAT5 EC50, human primary CD8+ T": 240}
    ]}
  ]
}
